Laboratory results reported in article doi:10.1101/2020.04.14.040436, “Molecular basis for the recognition of steroidogenic acute regulatory protein by the 14-3-3 protein family” (bioRxiv, 2020).
Blank lines part the entries; values can stand above or below the binder they belong to.

Columns and labels:
[1] = biological target: T1, STARD1_(46-285)-S56A/L59P phosphorylated at Ser57 and Ser195 (human, UniProt P49675 46-285, S56A | L59P, phosphoserine at 57; phosphoserine at 195); assay: SPR
T1 sequence: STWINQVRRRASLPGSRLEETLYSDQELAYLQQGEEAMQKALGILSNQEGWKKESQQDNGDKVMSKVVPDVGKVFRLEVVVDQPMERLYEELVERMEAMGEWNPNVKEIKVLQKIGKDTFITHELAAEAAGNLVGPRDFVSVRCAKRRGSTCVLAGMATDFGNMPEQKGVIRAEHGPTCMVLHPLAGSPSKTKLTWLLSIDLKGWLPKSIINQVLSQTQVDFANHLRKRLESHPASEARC

[2] = biological target: T1, STARD1_(46-285)-S56A/L59P …; assay: SPR; remark: listed apart in the source
[3] = biological target: the molecule itself; assay: crystal structure; phosphorylated chimeras of 14-3-3σΔC with the STARD1 peptide joined by a GSGSL linker; sitting-drop vapor diffusion; data at 100 K
[4] = biological target: T2, wild-type full-length human 14-3-3γ (human, UniProt P61981 1-247); assay: time-resolved fluorescence anisotropy; 1 µM 22NC, 10 µM pSTARD1, 100 µM 14-3-3γ; 20 mM Tris-HCl pH 7.5, 150 mM NaCl, 5 mM MgCl2; 25 °C; correlation time of the 22NC bound to STARD1; conditions: both partners purified
T2 construct: 14-3-3γ, human, wild type, full length; Called untagged in the preparation of the heterodimer; also called untagged 14-3-3γ
T2 sequence (looked up): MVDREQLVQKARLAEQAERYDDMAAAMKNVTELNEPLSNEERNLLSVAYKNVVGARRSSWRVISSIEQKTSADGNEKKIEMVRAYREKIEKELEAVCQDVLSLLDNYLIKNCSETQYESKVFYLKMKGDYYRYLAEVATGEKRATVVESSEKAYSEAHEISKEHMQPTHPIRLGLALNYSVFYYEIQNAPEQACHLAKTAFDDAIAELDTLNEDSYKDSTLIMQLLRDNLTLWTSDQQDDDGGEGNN

koff [1]: 0.0057 s⁻¹
Ka [2]: 67000 M⁻¹
B1: 14-3-3ε/γ heterodimer (His6-tagged 14-3-3ε with untagged 14-3-3γ) (complex)
chain 1: MDDREDLVYQAKLAEQAERYDEMVESMKKVAGMDVELTVEERNLLSVAYKNVIGARRASWRIISSIEQKEENKGGEDKLKMIREYRQMVETELKLICCDILDVLDKHLIPAANTGESKVFYYKMKGDYHRYLAEFATGNDRKEAAENSLVAYKAASDIAMTELPPTHPIRLGLALNFSVFYYEILNSPDRACRLAKAAFDDAIAELDTLSEESYKDSTLIMQLLRDNLTLWTS
chain 2: T2 sequence (looked up)

koff [1]: 0.0058 s⁻¹
Ka [2]: 77000 M⁻¹
B2: His6-tagged 14-3-3ε (natural protein)
chain: B1 chain 1

B3: chimeric 14-3-3σΔC protein with the STARD1 Ser195 phosphopeptide (other, human)
chain: MERASLIQKAKLAEQAERYEDMAAFMKGAVEKGEELSCEERNLLSVAYKNVVGGQRAAWRVLSSIEQKSNEEGSAAAGPEVREYREKVETELQGVCDTVLGLLDSHLIKEAGDAESRVFYLKMKGDYYRYLAEVATGDDKKRIIDSARSAYQEAMDISKKEMPPTNPIRLGLALNFSVFHYEIANSPEEAISLAKTTFDEAMADLHTLSEDSYKDSTLIMQLLRDNLTLWTGSGSLRRGSTCVLA
modifications: phosphoserine at Ser195 of the STARD1 peptide
notes: 14-3-3σ, human, without the C-terminal tail (14-3-3σΔC core); linker; steroidogenic acute regulatory protein STARD1 (StAR), human, stretch around Ser195; also called protein with fused Ser195 peptide; not shown: His, N-terminal, cleaved
binding result [3]: binds

binding result [4]: binds
B4: STARD1_(46-285)-S56A/L59P phosphorylated at Ser57 and Ser195 (domain or fragment, human, UniProt P49675 46-285, looked up)
chain: T1 sequence
modifications: phosphoserine at 57; phosphoserine at 195
notes: steroidogenic acute regulatory protein STARD1 (StAR), human, residues 46-285 of the 285-residue pre-protein; also called pSTARD1; pSTARD1_(46-285)-S56A/L59P
